Assay results from patent US20190105403A1 (STCUBE, published 2019).

T1: human PD-L1 4NQ (N35Q/N192Q/N200Q/N219Q), fully unglycosylated variant, expressed on BT549 cells (human, UniProt Q9NZQ7 19-290)
T1 construct: In the Western blots the protein was in cell lysate; also called 4NQ PD-L1; unglycosylated PD-L1 4NQ mutant
T1 chain: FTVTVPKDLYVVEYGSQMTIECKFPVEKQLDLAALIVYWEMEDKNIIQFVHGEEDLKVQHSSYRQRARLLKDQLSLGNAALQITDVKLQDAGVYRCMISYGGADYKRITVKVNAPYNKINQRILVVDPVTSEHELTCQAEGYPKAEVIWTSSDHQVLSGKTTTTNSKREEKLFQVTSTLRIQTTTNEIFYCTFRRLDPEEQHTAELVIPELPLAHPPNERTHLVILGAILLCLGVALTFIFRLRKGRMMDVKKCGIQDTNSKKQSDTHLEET


How the values were obtained:
[1] = biological target: T1, human PD-L1 4NQ …; assay: flow cytometry on BT549 cells overexpressing PD-L1 4NQ (mixed with WT cells), FITC secondary antibody
[2] = biological target: T2, human PD-L1 wild type (glycosylated), expressed on cells (human, UniProt Q9NZQ7 19-290, N-glycosylated at N35, N192, N200 and N219); assay: flow cytometry on BT549 cells overexpressing PD-L1 WT (biotin labeled, mixed with 4NQ cells), FITC secondary antibody
T2 construct: Endogenous on NCI-H226, A431 and MDA-MB231 cells and transfected into 4T1 cells in the functional assays; In the Western blots the protein was in cell lysate; also called PD-L1 WT; WT PD-L1
T2 sequence (Q9NZQ7 19-290): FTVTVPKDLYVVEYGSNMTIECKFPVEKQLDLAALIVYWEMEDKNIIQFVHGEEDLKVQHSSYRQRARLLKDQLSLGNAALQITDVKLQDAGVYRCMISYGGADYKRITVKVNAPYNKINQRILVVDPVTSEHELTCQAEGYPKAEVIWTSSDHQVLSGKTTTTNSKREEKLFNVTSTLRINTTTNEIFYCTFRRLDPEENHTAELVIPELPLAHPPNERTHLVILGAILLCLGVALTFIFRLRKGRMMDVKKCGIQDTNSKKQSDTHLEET

MFI [1] | MFI [2] | Binder
12.2 | 63.9 | STM073 MAb (antibody, V domains shown) VH: EVQLVESGGALVKPGGSLKLSCAASGFTFSNSAMSWVRQTPEKRLEWVATISSAGSYTYYPDSVKGRFTISRDNAKNTLYLQMSSLRSEDTALYYCTRHYDYYFDYWGQGATLTVSS VL: QIVLTQSPAIMSASPGEKVTLTCSASSSVSYMHWYQQKPGSSPRLVIYDTSNLASGVPVRFSGSGSGTSYSLTVSRMEAEDAATYYCQQWSDHPLTFGAGTKLELK
8.7 | 42.5 | STM004 MAb (antibody, V domains shown) VH: QVQLQQSDAELVKPGASVKISCKASGYTFSDHAIHWVKQRPEQGLEWIGCISPGSGDITYNEKFKGKATLTADKSSSTAYMQLNSLTSEDSAVYFCKRWGLDYWGQGTTLTVSS VL: DIVLTQSPASLAVSLGQRATISCRASESVEFYGTTLMQWYQQKPGQPPRLLIYAASNVESGVPARFSGSGSGTDFSLNIHPVEDDDIAMYFCQQSRKVPYTFGGGTKLEIK
27.6 | 117 | STM108 MAb (antibody, V domains shown) VH: EVMLVESGGALVKPGGSLKLSCAASGFSLSNYVMSWVRQTPEKRLEWVATISSGGRYIYYTDSVKGRFTISRDNARNTLYLQMSSLRSEDTAMYYCARDGSTLYYFDYWGQGTTLTVSS VL: QTVLTQSPAIMSASPGEKVTMTCSASSSVDYMYWYQQKPGSSPRLLIYDTSNLASGVPVRFSGSGSGTSYSLTISRMEAEDAATYYCQQWSSSPPITFGTGTKVELK
21.3 | 51.1 | STM115 MAb (antibody, V domains shown) VH: EVMLVESGGALVEPGGSLKLSCVASGFTFSNYAMSWVRQTPERRLEWVASITNGGTYTYYPDSVKGRFTISRDNARNTLYLQMSSLRSEDTAMYFCARPLHYYGGSHFDYWGQGTTLTVSS VL: EIVLTQSPALMAASPGEKVTITCSVSSSISSNTLHWYQQKSEISPKPWIYGTSNLASGVPVRFSGSGSGTSYSLTISSMEAEDAATYYCQQWSSYPLTFGGGTKLEIK
